For test [1], the target named is bacterial chalcone isomerase (CHI) from Eubacterium ramulus (Eubacterium ramulus) (UniProt V9P0A9). The test is described as follows: crystal structure; hanging drop at 293 K, 6.8 mg/mL protein in 50 mM sodium phosphate pH 6.8; reservoir ammonium sulphate (1.8 M for CHI, 1.5 M for CHI_H33A), 0.2 M NaCl, 0.1 M HEPES pH 7.5; crystals soaked 10 min with 2.5 mM (+)-taxifolin; data at 100 K; hexamer seen in the asymmetric unit.

Test [2] concerns the target bacterial chalcone isomerase (CHI) from Eubacterium ramulus, His33Ala variant (Eubacterium ramulus) (UniProt V9P0A9). Described as above.

For orientation: stoichiometry N means the number of molecules, sites or subunits per partner or assembly. Take “bacterial chalcone isomerase (CHI) from Eubacterium ramulus (from UniProt V9P0A9 1-283) (enzyme)”: the stoichiometry N in test [1] was 6. Consider “bacterial chalcone isomerase (CHI) from Eubacterium ramulus, His33Ala variant (from UniProt V9P0A9 1-283) (enzyme)”, for which the stoichiometry N in test [2] turned out to be 6.

The record behind these values is article PMC9694015.
